In paper PMC11021425, “Salmonella manipulates macrophage migration via SteC-mediated myosin light chain activation to penetrate the gut-vascular barrier” (The EMBO Journal, 2024):

How the values were obtained:
[1] = target: T1, SteC FL (full-length SteC) (Salmonella enterica, UniProt D0ZIB5); assay: Phos-tag gel kinase assay; assay type: biochemical; conditions: phosphate donor, 100 μM; acceptor murine Myl12a; 10 mM MgCl2/MnCl2, pH 7.5, 30 °C
T1 construct: full-length (457 aa), expressed in E. coli BL21(DE3) from pGL01, Ni-NTA, His-tag removed by PPase, Superdex 200; dimeric catalysis inferred from the kinase domain structure

Myl12a, biotinylated [2] = target: Myl12a, biotinylated (UniProt Q6ZWQ9); assay: BLI
[3] = system: Nc1nc2c(ncn2[C@@H]2O[C@H](COP(=O)(O)OP(=O)(O)OP(=O)(O)O)[C@@H](O)[C@H]2O)c(=O)[nH]1; assay: purified protein; conditions: phosphate donor, acceptor murine Myl12a, 10 mM MnCl2, 25 mM Tris-HCl pH 7.5, 1 mM DTT, 30 °C, 30 min
[4] = system: O=c1ccn([C@@H]2O[C@H](COP(=O)(O)OP(=O)(O)OP(=O)(O)O)[C@@H](O)[C@H]2O)c(=O)[nH]1; assay: purified protein; conditions: phosphate donor, acceptor murine Myl12a, 10 mM MnCl2, 25 mM Tris-HCl pH 7.5, 1 mM DTT, 30 °C, 30 min
[5] = target: Myl12a, biotinylated (murine) (UniProt Q6ZWQ9); assay: BLI
Myl12a, biotinylated [6] = target: T2, Myl12a, biotinylated (murine, UniProt Q6ZWQ9 1-172, biotin (EZ-Link biotin, MCR = 1:1)); assay: BLI
T2 chain: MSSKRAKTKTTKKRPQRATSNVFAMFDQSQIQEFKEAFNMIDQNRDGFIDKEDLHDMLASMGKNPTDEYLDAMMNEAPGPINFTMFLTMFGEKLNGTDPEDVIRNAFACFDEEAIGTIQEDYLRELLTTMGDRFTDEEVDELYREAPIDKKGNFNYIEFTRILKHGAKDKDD

T1 sequence (D0ZIB5 whole entry, the tested form may be a part): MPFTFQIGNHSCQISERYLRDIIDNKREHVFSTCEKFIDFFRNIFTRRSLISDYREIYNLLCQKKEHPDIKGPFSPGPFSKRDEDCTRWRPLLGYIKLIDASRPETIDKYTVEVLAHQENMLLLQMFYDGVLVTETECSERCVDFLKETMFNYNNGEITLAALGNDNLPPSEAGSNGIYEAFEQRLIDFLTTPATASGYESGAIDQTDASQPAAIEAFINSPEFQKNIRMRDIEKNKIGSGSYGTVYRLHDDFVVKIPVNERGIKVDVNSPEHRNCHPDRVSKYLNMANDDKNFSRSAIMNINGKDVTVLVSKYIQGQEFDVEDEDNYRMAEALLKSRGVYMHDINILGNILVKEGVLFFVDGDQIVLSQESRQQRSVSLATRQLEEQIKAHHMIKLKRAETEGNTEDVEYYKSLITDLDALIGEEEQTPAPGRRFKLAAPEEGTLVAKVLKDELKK

For `Nc1ccn([C@@H]2O[C@H](COP(=O)(O)OP(=O)(O)OP(=O)(O)O)[C@@H](O)[C@H]2O)c(=O)n1` [CTP], which “Phos-tag gel kinase assay” value [1] is on record?
The value was “SteC can employ all four nucleotides (ATP, CTP, UTP, and GTP) for phosphorylation”.

Which Kd (Myl12a, biotinylated [2]) does the source give for Native SteC mut1 here?
Its Kd is 1.09 µM.

For Native SteC mut4, which Kd (Myl12a, biotinylated [2]) is on record?
The Kd was 1.11 µM.

“SteC FL (full-length SteC) (Salmonella enterica subsp. enterica serovar Typhimurium str. 14028S)” was tested. Which Km [3] did it give?
Its Km is 5.84 µM.

And the Km [4]?
Its Km is 5.53 µM.

“SteC-C (194 aa–457 aa) (domain or fragment)” was tested. Which Kd [5] did it give?
The Kd was 23.3 µM.

Which Kd [5] does the source give for “SteC full-length protein (natural protein)” here?
Its Kd is 1.34 µM.

B1: SteC 194 aa–364 aa (domain or fragment)
chain: ATASGYESGAIDQTDASQPAAIEAFINSPEFQKNIRMRDIEKNKIGSGSYGTVYRLHDDFVVKIPVNERGIKVDVNSPEHRNCHPDRVSKYLNMANDDKNFSRSAIMNINGKDVTVLVSKYIQGQEFDVEDEDNYRMAEALLKSRGVYMHDINILGNILVKEGVLFFVDGD
With B1 as the molecule, how does the Kd (Myl12a, biotinylated [6]) read?
Its Kd is 8.83 µM.

B2: SteC 168 aa–364 aa fragment (domain or fragment)
chain: LPPSEAGSNGIYEAFEQRLIDFLTTPATASGYESGAIDQTDASQPAAIEAFINSPEFQKNIRMRDIEKNKIGSGSYGTVYRLHDDFVVKIPVNERGIKVDVNSPEHRNCHPDRVSKYLNMANDDKNFSRSAIMNINGKDVTVLVSKYIQGQEFDVEDEDNYRMAEALLKSRGVYMHDINILGNILVKEGVLFFVDGD
With B2 as the molecule, how does the Kd (Myl12a, biotinylated [6]) read?
The Kd was 0.71 µM.
